Experimental data as given in patent US20140371148A1.

Target: ACE from rabbit lung (rabbit) (UniProt P12822)
Experiment: cell-based or functional assay

ACE from rabbit lung (rabbit), sequence (P12822 34-1310 limits assumed, form in doubt): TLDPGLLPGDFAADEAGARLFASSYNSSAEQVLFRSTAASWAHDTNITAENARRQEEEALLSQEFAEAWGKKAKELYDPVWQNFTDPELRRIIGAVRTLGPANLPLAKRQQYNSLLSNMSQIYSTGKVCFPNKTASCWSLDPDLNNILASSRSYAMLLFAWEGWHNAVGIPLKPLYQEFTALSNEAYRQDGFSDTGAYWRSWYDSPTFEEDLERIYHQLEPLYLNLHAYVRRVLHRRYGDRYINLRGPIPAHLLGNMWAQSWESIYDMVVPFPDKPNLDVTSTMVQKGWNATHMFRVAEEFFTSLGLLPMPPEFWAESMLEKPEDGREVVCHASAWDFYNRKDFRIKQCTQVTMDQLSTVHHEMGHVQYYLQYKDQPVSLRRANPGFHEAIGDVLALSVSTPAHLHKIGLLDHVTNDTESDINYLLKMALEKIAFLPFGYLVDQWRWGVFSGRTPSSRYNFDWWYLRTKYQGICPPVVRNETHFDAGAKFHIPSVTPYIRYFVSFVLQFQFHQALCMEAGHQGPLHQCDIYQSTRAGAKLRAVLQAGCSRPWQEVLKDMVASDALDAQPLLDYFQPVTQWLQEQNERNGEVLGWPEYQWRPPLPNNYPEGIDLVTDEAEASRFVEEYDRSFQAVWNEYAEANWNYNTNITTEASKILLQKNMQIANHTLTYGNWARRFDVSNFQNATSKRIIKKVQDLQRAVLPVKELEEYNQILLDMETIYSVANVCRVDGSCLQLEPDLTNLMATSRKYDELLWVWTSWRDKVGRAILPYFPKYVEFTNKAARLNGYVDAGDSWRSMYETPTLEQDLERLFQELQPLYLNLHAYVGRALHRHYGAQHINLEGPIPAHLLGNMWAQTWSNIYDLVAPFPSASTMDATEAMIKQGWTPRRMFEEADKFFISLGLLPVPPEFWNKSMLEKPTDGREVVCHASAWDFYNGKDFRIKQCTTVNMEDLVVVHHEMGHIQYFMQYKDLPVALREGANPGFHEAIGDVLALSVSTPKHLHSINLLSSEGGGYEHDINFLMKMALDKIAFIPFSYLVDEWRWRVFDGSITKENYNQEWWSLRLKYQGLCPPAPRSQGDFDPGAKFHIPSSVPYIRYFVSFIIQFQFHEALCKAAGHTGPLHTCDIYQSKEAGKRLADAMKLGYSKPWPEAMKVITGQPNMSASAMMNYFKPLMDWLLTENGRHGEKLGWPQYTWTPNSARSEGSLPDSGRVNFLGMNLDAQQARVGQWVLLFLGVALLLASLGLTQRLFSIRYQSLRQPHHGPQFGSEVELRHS

With “GLP-1-(7-37)-γ-Abu-N^ε2Lys-(Pyr)-WAP-OH (peptide)” as the substance, how does the ACE inhibition IC50 read?
Its ACE inhibition IC50 is greater than 10 µM.
